Experiments:
FcγRIIa H [1] = molecular target: T1, FcγRIIa H (human, UniProt P12318 34-217); test: SPR (Biacore), antibody captured on antigen peptide chip, FcγR as analyte; relative binding activity
T1 construct: extracellular domain; also called FcgRIIa H; 2aH; not shown: His tag attached to the C terminus
T1 sequence (looked up): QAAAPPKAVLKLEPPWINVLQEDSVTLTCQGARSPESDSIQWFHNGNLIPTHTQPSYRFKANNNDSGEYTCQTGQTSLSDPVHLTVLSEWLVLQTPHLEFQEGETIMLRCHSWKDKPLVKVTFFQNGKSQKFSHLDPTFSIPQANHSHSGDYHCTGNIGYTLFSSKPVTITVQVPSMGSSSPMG
Protocol: (§1) The heterodimerized antibodies He Abs in which one of the H chains was introduced with an alteration were assayed for their binding activities to each activating FcγR and inhibitory FcγR according to the method described in Example 4. […] The activating FcγRs in FIGS. 26, 27, 28, and 29 are FcγRIa, FcγRIIa (R), FcγRIIa (H), and FcγRIIIa, respectively.
(§2) Analysis of interaction between objective antibody and the FcγR was carried out using Biacore T100 (GE Healthcare). HBS-EP+ (GE Healthcare) was used as the running buffer, and the measurement temperature was set to 25° C. Chips produced by immobilizing the antigen peptide by the amine coupling method to a Series S Sencor Chip CM5 (GE Healthcare), or alternatively, chips produced by allowing preliminarily biotinylated antigen peptides to interact with and immobilize onto a Series S Sensor Chip SA (certified) (GE Healthcare) were used. Antibodies of interest were captured onto an antigen peptide-immobilized chip, and allowed to interact to each FcγR diluted with running buffer. To regenerate and repeatedly use the chip, the antibodies captured on the chip were washed off by reacting 10 mM glycine-HCl, pH 1.5.

FcγRIIb = molecular target: T2, FcγRIIb (human, UniProt P31994 43-217); test: as above
T2 construct: extracellular domain; also called FcgRIIb; 2b; not shown: His tag attached to the C terminus
T2 sequence (looked up): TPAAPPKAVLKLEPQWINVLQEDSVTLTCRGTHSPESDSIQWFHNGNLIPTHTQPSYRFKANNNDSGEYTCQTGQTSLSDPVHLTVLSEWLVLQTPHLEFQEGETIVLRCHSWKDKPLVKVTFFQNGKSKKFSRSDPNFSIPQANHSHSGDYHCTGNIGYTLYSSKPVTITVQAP
Protocol: as §1, §2

FcγRIIa H [2] = molecular target: T1, FcγRIIa H; test: SPR; He/Con for FcγRIIa H divided by He/Con for FcγRIIb
[3] = molecular target: T3, FcγRIIb extracellular domain with C-terminal His tag (human, UniProt P31994 43-217); test: SPR, binding relative to GpH7-A5/GpH7-B3/GpL16-k0 = 100
T3 construct: extracellular domain; soluble analyte in Biacore; also called FcgRIIb; not shown: His tag at the C terminus
T3 sequence (looked up): T2 sequence (looked up)

[4] = molecular target: T4, FcγRIa extracellular domain with C-terminal His tag (human, UniProt P12314 16-292); test: as above
T4 construct: extracellular domain; soluble analyte in Biacore; also called FcgRI; not shown: His tag at the C terminus

[5] = molecular target: T4, FcγRIa extracellular domain with …; test: SPR; He/Con_1a divided by He/Con_2b (FcγRIa against FcγRIIb)
Protocol: as §1, §2

T4 sequence (P12314 16-292): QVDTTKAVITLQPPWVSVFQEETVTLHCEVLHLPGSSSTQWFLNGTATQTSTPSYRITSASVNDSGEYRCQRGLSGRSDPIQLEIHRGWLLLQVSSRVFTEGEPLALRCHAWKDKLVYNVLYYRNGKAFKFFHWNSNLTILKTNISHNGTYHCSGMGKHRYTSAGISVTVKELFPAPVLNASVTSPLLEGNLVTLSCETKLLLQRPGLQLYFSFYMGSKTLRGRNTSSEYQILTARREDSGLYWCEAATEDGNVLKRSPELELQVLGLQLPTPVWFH

B1: GpH7-A5/GpH7-B3 variant H268_04F/GpL16-k0 (antibody, human IgG1, kappa)
heavy 1: not shown
heavy 2: not shown
light: DIVMTQSPLSLPVTPGEPASISCQASESLVHSNRNTYLHWYLQKPGQSPQLLIYKVSNRFSGVPDRFSGSGSGTDFTLKISRVEAEDVGVYYCSQNTHVPPTFGQGTKVEIERTVAAPSVFIFPPSDEQLKSGTASVVCLLNNFYPREAKVQWKVDNALQSGNSQESVTEQDSKDSTYSLSSTLTLSKADYEKHKVYACEVTHQGLSSPVTKSFNRGEC
notes: Heterodimerized anti-glypican-3 IgG1; mutation in one H chain only; also called He Ab
FcγRIIa H [1]
  He/Con_2aH: 111 % of GpH7-A5/GpH7-B3/GpL16-k0 (=100)
FcγRIIb
  He/Con_2b: 89.6 % of GpH7-A5/GpH7-B3/GpL16-k0 (=100)
FcγRIIa H [2]
  He_2aH/2b (IIaH/IIb): 1.24 ratio

B2: GpH7-A5/GpH7-B3 variant D265_13S/GpL16-k0 (antibody, human IgG1, kappa)
heavy 1: not shown
heavy 2: not shown
light: B1 light
notes: as for B1
FcγRIIa H [1]
  He/Con_2aH: 19.8 % of GpH7-A5/GpH7-B3/GpL16-k0 (=100)
FcγRIIb
  He/Con_2b: 11.3 % of GpH7-A5/GpH7-B3/GpL16-k0 (=100)
FcγRIIa H [2]
  He_2aH/2b (IIaH/IIb): 1.75 ratio

B3: GpH7-A5/GpH7-B3 variant H268_08L/GpL16-k0 (antibody, human IgG1, kappa)
heavy 1: not shown
heavy 2: not shown
light: B1 light
notes: as for B1
FcγRIIa H [1]
  He/Con_2aH: 85 % of GpH7-A5/GpH7-B3/GpL16-k0 (=100)
FcγRIIb
  He/Con_2b: 67.8 % of GpH7-A5/GpH7-B3/GpL16-k0 (=100)
FcγRIIa H [2]
  He_2aH/2b (IIaH/IIb): 1.25 ratio

B4: GpH7-A5/GpH7-B3 variant D265_12R/GpL16-k0 (antibody, human IgG1, kappa)
heavy 1: not shown
heavy 2: not shown
light: B1 light
notes: as for B1
FcγRIIa H [1]
  He/Con_2aH: 28 % of GpH7-A5/GpH7-B3/GpL16-k0 (=100)
FcγRIIb
  He/Con_2b: 15 % of GpH7-A5/GpH7-B3/GpL16-k0 (=100)
FcγRIIa H [2]
  He_2aH/2b (IIaH/IIb): 1.87 ratio

B5: GpH7-A5/GpH7-B3 variant D265_04F/GpL16-k0 (antibody, human IgG1, kappa)
heavy 1: not shown
heavy 2: not shown
light: B1 light
notes: as for B1
FcγRIIa H [1]
  He/Con_2aH: 4.1 % of GpH7-A5/GpH7-B3/GpL16-k0 (=100)
FcγRIIb
  He/Con_2b: 3.2 % of GpH7-A5/GpH7-B3/GpL16-k0 (=100)
FcγRIIa H [2]
  He_2aH/2b (IIaH/IIb): 1.28 ratio

B6: GpH7-A5/GpH7-B3 variant D265_18N/GpL16-k0 (antibody, human IgG1, kappa)
heavy 1: not shown
heavy 2: not shown
light: B1 light
notes: as for B1
FcγRIIa H [1]
  He/Con_2aH: 12.4 % of GpH7-A5/GpH7-B3/GpL16-k0 (=100)
FcγRIIb
  He/Con_2b: 6.1 % of GpH7-A5/GpH7-B3/GpL16-k0 (=100)
FcγRIIa H [2]
  He_2aH/2b (IIaH/IIb): 2.01 ratio

B7: GpH7-A5/GpH7-B3 variant D265_07I/GpL16-k0 (antibody, human IgG1, kappa)
heavy 1: not shown
heavy 2: not shown
light: B1 light
notes: as for B1
FcγRIIa H [1]
  He/Con_2aH: 3.1 % of GpH7-A5/GpH7-B3/GpL16-k0 (=100)
FcγRIIb
  He/Con_2b: 1.3 % of GpH7-A5/GpH7-B3/GpL16-k0 (=100)
FcγRIIa H [2]
  He_2aH/2b (IIaH/IIb): 2.35 ratio

B8: GpH7-A5/GpH7-B3 variant G236_16H/GpL16-k0 (antibody, human IgG1, kappa)
heavy 1: not shown
heavy 2: not shown
light: B1 light
notes: as for B1
FcγRIIa H [1]
  He/Con_2aH: 98.2 % of GpH7-A5/GpH7-B3/GpL16-k0 (=100)
FcγRIIb
  He/Con_2b: 27.9 % of GpH7-A5/GpH7-B3/GpL16-k0 (=100)
FcγRIIa H [2]
  He_2aH/2b (IIaH/IIb): 3.51 ratio

B9: GpH7-A5/GpH7-B3 variant P271_15Y/GpL16-k0 (antibody, human IgG1, kappa)
heavy 1: not shown
heavy 2: not shown
light: B1 light
notes: change in the GpH7-B3 H chain only; also called He Ab
[3]
  He/Con_2b: 52.3 % of control
[4]
  He/Con_1a: 103 % of control
[5]
  He_1a/2b (Ia/IIb): 1.97 ratio

B10: GpH7-A5/GpH7-B3 variant S239_16H/GpL16-k0 (antibody, human IgG1, kappa)
heavy 1: not shown
heavy 2: not shown
light: B1 light
notes: as for B1
FcγRIIa H [1]
  He/Con_2aH: 59.4 % of GpH7-A5/GpH7-B3/GpL16-k0 (=100)
FcγRIIb
  He/Con_2b: 49.4 % of GpH7-A5/GpH7-B3/GpL16-k0 (=100)
FcγRIIa H [2]
  He_2aH/2b (IIaH/IIb): 1.2 ratio

B11: GpH7-A5/GpH7-B3 variant D265_11K/GpL16-k0 (antibody, human IgG1, kappa)
heavy 1: not shown
heavy 2: not shown
light: B1 light
notes: as for B1
FcγRIIa H [1]
  He/Con_2aH: 27.8 % of GpH7-A5/GpH7-B3/GpL16-k0 (=100)
FcγRIIb
  He/Con_2b: 14.9 % of GpH7-A5/GpH7-B3/GpL16-k0 (=100)
FcγRIIa H [2]
  He_2aH/2b (IIaH/IIb): 1.87 ratio

B12: GpH7-A5/GpH7-B3 variant P271_06M/GpL16-k0 (antibody, human IgG1, kappa)
heavy 1: not shown
heavy 2: not shown
light: B1 light
notes: as for B9
[3]
  He/Con_2b: 77.5 % of control
[4]
  He/Con_1a: 102 % of control
[5]
  He_1a/2b (Ia/IIb): 1.32 ratio

B13: GpH7-A5/GpH7-B3 variant H268_06M/GpL16-k0 (antibody, human IgG1, kappa)
heavy 1: not shown
heavy 2: not shown
light: B1 light
notes: as for B1
FcγRIIa H [1]
  He/Con_2aH: 84.8 % of GpH7-A5/GpH7-B3/GpL16-k0 (=100)
FcγRIIb
  He/Con_2b: 65.7 % of GpH7-A5/GpH7-B3/GpL16-k0 (=100)
FcγRIIa H [2]
  He_2aH/2b (IIaH/IIb): 1.29 ratio

B14: GpH7-A5/GpH7-B3 variant S239_12R/GpL16-k0 (antibody, human IgG1, kappa)
heavy 1: not shown
heavy 2: not shown
light: B1 light
notes: as for B1
FcγRIIa H [1]
  He/Con_2aH: 57.1 % of GpH7-A5/GpH7-B3/GpL16-k0 (=100)
FcγRIIb
  He/Con_2b: 39.1 % of GpH7-A5/GpH7-B3/GpL16-k0 (=100)
FcγRIIa H [2]
  He_2aH/2b (IIaH/IIb): 1.46 ratio

B15: GpH7-A5/GpH7-B3 variant P271_04F/GpL16-k0 (antibody, human IgG1, kappa)
heavy 1: not shown
heavy 2: not shown
light: B1 light
notes: as for B9
[3]
  He/Con_2b: 59.5 % of control
[4]
  He/Con_1a: 102 % of control
[5]
  He_1a/2b (Ia/IIb): 1.71 ratio

B16: GpH7-A5/GpH7-B3 variant P271_20W/GpL16-k0 (antibody, human IgG1, kappa)
heavy 1: not shown
heavy 2: not shown
light: B1 light
notes: as for B9
[3]
  He/Con_2b: 58.1 % of control
[4]
  He/Con_1a: 103 % of control
[5]
  He_1a/2b (Ia/IIb): 1.77 ratio

B17: GpH7-A5/GpH7-B3 variant P271_07I/GpL16-k0 (antibody, human IgG1, kappa)
heavy 1: not shown
heavy 2: not shown
light: B1 light
notes: as for B9
[3]
  He/Con_2b: 76.8 % of control
[4]
  He/Con_1a: 102 % of control
[5]
  He_1a/2b (Ia/IIb): 1.33 ratio
